Columns and labels:
Grb2 SH2 = Grb2 SH2 (UniProt P62993); test: SH2 binding enrichment of the phosphorylated peptide, bacterial display (enrichment ratio); higher = better substrate or ligand; peptides without Tyr show the background
c-Src SH2 = test: as above
SHP2-C SH2 = test: as above
Fes = Fes (UniProt P07332); test: phosphorylation enrichment, bacterial display (enrichment ratio); higher = better substrate or ligand; peptides without Tyr show the background
EPHB2 = EPHB2 (UniProt P29323); test: as above
Sequence of EPHB2 (P29323 whole entry, looked up): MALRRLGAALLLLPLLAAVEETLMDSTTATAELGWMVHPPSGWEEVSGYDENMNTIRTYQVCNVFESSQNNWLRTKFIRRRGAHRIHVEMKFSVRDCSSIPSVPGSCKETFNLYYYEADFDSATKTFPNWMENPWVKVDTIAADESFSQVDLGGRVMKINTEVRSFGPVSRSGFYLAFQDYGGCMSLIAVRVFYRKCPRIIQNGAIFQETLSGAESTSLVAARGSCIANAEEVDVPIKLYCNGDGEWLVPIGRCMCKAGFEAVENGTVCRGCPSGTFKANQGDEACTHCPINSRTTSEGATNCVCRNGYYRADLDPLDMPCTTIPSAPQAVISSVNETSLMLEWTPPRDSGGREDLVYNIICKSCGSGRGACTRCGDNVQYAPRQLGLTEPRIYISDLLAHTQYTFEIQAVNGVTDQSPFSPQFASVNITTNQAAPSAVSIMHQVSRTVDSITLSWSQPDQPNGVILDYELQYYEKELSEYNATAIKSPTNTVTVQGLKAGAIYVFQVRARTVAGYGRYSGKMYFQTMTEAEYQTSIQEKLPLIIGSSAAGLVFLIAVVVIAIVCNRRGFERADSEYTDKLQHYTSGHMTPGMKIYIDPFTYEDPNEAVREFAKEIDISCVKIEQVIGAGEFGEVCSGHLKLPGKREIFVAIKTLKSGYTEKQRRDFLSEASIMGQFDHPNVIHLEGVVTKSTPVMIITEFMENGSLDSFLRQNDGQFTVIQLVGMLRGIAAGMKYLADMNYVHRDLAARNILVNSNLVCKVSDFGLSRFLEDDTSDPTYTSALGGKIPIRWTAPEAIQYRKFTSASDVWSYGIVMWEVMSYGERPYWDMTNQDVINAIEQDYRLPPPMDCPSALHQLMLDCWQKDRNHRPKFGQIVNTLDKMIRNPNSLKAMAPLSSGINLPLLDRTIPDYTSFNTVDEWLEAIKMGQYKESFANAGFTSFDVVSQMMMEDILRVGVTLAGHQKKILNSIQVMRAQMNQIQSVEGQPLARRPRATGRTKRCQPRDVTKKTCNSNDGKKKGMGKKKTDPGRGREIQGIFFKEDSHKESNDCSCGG

c-Src = test: as above
MERTK = MERTK (UniProt Q12866); test: as above
Sequence of MERTK (Q12866 whole entry, looked up): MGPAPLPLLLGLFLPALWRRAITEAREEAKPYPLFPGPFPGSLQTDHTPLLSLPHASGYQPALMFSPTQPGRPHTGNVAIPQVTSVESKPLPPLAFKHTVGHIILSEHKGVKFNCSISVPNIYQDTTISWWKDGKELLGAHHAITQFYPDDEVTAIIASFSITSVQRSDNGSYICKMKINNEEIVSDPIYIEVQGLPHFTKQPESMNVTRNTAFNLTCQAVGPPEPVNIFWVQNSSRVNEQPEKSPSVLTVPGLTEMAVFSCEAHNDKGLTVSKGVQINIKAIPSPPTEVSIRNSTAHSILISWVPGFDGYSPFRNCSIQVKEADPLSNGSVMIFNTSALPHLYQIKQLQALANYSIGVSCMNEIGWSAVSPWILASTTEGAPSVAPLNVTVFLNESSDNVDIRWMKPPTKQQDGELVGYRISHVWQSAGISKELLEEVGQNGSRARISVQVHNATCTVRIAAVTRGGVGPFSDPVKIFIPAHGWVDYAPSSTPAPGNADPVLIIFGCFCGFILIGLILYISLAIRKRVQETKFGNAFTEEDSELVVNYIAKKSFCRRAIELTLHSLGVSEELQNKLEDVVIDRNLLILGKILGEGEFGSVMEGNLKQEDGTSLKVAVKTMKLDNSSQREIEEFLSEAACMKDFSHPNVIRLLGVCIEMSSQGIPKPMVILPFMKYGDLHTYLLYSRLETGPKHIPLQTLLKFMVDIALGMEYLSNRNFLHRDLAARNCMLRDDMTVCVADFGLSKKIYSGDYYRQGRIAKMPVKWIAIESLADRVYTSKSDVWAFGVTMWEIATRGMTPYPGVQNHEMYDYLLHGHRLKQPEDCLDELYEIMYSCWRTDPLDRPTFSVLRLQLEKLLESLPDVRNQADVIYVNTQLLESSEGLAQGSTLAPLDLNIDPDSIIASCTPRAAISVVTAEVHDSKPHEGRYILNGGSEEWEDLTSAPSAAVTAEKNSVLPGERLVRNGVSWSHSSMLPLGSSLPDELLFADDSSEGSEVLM

Hck = Hck (UniProt P08631); test: as above
Sequence of Hck (P08631 whole entry, looked up): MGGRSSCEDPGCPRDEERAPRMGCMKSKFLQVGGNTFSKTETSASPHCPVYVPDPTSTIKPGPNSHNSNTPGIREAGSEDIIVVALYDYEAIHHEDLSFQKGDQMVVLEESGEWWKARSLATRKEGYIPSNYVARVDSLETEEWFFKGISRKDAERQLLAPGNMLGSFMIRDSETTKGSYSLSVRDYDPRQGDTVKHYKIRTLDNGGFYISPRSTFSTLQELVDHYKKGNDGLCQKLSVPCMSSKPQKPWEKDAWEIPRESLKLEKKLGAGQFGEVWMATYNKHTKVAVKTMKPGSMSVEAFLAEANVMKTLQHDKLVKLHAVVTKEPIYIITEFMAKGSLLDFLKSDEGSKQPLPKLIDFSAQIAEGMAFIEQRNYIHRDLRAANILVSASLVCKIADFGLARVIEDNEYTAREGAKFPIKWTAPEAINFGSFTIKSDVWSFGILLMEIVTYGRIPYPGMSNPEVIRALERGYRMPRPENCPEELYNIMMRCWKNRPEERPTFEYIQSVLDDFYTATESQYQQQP

FGFR3 = FGFR3 (UniProt P22607); test: as above
FGFR1 = FGFR1 (UniProt P11362); test: as above
Sequence of FGFR1 (P11362 whole entry, looked up): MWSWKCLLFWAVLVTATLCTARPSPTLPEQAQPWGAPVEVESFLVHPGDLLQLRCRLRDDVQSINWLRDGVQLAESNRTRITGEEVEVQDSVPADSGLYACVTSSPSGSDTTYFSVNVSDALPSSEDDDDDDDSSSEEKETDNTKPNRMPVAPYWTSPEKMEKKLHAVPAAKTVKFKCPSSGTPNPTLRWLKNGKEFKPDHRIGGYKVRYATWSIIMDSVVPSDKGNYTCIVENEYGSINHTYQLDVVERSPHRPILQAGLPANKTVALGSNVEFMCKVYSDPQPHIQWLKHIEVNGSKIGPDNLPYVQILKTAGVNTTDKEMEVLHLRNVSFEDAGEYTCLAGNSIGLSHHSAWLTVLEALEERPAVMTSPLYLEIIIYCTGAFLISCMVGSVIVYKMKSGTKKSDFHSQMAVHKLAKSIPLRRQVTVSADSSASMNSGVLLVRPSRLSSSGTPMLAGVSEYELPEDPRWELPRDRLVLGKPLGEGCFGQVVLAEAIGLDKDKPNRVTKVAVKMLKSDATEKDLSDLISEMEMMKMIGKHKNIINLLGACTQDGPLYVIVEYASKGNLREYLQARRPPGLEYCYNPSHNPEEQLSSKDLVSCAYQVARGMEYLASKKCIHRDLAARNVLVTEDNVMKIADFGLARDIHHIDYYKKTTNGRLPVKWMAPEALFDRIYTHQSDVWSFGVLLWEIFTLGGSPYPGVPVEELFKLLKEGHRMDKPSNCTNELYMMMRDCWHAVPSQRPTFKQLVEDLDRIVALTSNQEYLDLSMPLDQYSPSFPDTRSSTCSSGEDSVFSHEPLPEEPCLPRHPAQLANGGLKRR

Jak2 = Jak2 (UniProt O60674); test: as above
EPHB1 = EPHB1 (UniProt P54762); test: as above
Sequence of EPHB1 (P54762 whole entry, looked up): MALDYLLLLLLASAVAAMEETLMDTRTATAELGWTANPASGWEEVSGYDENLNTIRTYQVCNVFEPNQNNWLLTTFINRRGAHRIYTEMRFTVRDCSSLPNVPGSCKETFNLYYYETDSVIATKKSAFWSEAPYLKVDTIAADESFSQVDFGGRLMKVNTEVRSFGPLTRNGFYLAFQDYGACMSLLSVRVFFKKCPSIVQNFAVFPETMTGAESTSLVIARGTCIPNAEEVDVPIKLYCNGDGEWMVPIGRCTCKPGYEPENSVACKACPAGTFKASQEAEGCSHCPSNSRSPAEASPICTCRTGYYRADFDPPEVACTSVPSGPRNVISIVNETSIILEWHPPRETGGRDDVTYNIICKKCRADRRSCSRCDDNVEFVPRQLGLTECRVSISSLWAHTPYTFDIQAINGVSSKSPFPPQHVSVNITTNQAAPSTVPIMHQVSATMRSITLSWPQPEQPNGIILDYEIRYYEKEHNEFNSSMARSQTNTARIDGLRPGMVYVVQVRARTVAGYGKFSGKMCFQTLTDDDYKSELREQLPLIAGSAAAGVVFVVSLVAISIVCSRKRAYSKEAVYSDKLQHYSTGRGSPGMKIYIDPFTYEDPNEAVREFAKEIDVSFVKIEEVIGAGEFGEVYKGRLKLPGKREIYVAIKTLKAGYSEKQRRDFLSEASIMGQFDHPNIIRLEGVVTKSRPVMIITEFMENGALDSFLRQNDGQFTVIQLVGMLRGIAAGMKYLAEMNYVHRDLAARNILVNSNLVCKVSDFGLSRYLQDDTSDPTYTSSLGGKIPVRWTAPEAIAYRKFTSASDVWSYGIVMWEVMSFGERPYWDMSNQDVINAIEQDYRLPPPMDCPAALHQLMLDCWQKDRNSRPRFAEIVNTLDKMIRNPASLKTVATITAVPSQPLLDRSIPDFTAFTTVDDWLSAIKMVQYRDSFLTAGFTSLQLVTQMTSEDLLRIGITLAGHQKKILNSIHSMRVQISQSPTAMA

Fyn = Fyn (UniProt P06241); test: as above
c-Abl (mouse) = test: as above
AncSZ = test: as above
Fer (mouse) = test: as above
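For SH2 binding enrichment of the phosphorylated peptide, bacterial display in this document: peptide library displayed on the E. coli surface as eCPX fusions, selected cells deep-sequenced, score is each peptide's frequency after selection divided by its frequency in the input.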
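For phosphorylation enrichment, bacterial display in this document: 11-residue human phosphosite peptides and single-mutation variants displayed on the E. coli surface, counted by deep sequencing, each peptide's frequency after selection divided by its frequency in the unselected input library; frequency after pTyr selection over input frequency; kinase dosed for 20-30% of maximal phosphorylation in three min.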

Sequence of Grb2 SH2 (P62993 whole entry, looked up): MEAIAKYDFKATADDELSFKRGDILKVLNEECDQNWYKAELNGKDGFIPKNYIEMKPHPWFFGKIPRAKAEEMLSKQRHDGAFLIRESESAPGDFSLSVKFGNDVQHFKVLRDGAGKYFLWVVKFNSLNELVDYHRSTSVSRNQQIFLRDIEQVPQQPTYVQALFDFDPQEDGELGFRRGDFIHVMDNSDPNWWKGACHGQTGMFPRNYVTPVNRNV

Row | Sequence | SH2 binding enrichment (Grb2 SH2) | SH2 binding enrichment (c-Src SH2) | SH2 binding enrichment (SHP2-C SH2) | phosphorylation enrichment (Fes) | phosphorylation enrichment (EPHB2) | phosphorylation enrichment (c-Src) | phosphorylation enrichment (MERTK) | phosphorylation enrichment (Hck) | phosphorylation enrichment (FGFR3) | phosphorylation enrichment (FGFR1) | phosphorylation enrichment (Jak2) | phosphorylation enrichment (EPHB1) | phosphorylation enrichment (Fyn) | phosphorylation enrichment (c-Abl (mouse)) | phosphorylation enrichment (AncSZ) | phosphorylation enrichment (Fer (mouse))
1 | AAESTYDKILK [GDNF_Y156_T154S] | 1.08 | 5.23 | 0.672 | 0.886 | 0.508 | 0.719 | 0.401 | 1.75 | 0.586 | 0.391 | 0.682 | 0.463 | 0.76 | 0.563 | 0.681 | 0.418
2 | AAPAAYDAADT [GAMT_Y27] | 0.839 | 1.11 | 0.654 | 0.97 | 0.5 | 0.513 | 0.461 | 0.495 | 0.683 | 0.529 | 0.857 | 0.479 | 0.522 | 0.782 | 1.1 | 0.526
3 | AASTDYNKRGD [PDHA1_Y242_Y243N] | 0.754 | 0.567 | 0.574 | 0.505 | 0.313 | 0.618 | 0.453 | 0.509 | 0.451 | 0.452 | 0.515 | 0.453 | 0.37 | 0.67 | 0.578 | 0.386
4 | AATTAYSKPKQ [MAP3K7_Y405_R410Q] | 0.648 | 0.477 | 0.57 |  |  | 0.063 |  |  |  |  | 0.257 |  |  | 0.121 |  | 
5 | AAVDTYCRHNY [HLA-DRB1_Y107] | 0.731 | 0.516 | 0.777 | 0.914 | 0.527 | 0.461 | 0.479 | 0.531 | 0.571 | 0.451 | 0.911 | 0.507 | 0.548 | 0.755 | 0.871 | 0.442
6 | ACQGKYTPSSQ [ALDOA_Y343_G347S] | 0.928 | 0.553 | 0.887 | 0.579 | 0.389 | 0.449 | 0.404 | 0.417 | 0.466 | 0.362 | 0.421 | 0.346 | 0.433 | 0.392 | 0.542 | 0.425
7 | ACQSLYGGFVE [MVD_Y164_R161Q] | 0.902 | 0.628 | 0.735 | 0.945 | 1.53 | 7.59 | 1.14 | 8.54 | 0.665 | 0.567 | 0.775 | 0.719 | 11.1 | 0.7 | 0.949 | 0.744
8 | ADCRFYAFPQM [GAMT_Y223_YF] | 0.778 | 0.526 | 0.653 | 1.57 | 3.79 | 1.35 | 7.18 | 0.92 | 1.03 | 0.719 | 1.45 | 3.25 | 0.76 | 2.39 | 2.44 | 6.04
9 | ADDSFYTVRSA [ZAP70_Y493_A495V_YF] | 0.701 | 0.466 | 0.556 | 0.999 | 0.478 | 1.53 | 0.552 | 1.22 | 0.748 | 0.444 | 0.829 | 0.439 | 1.21 | 0.734 | 0.884 | 0.489
10 | ADLVQYYMEHH [PTPN11_Y80_E76D] | 0.796 | 0.714 | 0.919 | 1.12 | 0.806 | 0.84 | 0.642 | 0.967 | 1.18 | 1.04 | 0.914 | 1.16 | 0.668 | 0.751 | 1.18 | 0.464
11 | ADRAAYLQNLN [MYH1_Y389_K386R] | 0.719 | 0.403 | 0.552 | 0.699 | 0.338 | 0.42 | 0.362 | 0.334 | 0.441 | 0.629 | 0.604 | 0.563 | 0.336 | 0.679 | 0.604 | 0.364
12 | AEDEDYESVGA [SYKtide_2014] | 0.852 | 0.589 | 0.975 | 1.44 | 0.672 | 0.616 | 0.49 | 0.658 | 0.937 | 0.62 | 1.26 | 0.815 | 0.586 | 0.938 | 1.29 | 0.655
13 | AELVPYYMEHH [PTPN11_Y80_Q79P] | 0.963 | 1.19 | 1.49 | 0.995 | 0.635 | 1.28 | 0.552 | 0.736 | 0.792 | 0.822 | 0.757 | 0.778 | 0.626 | 0.733 | 0.916 | 0.513
14 | AEPPDYSPVTH [ADGRG2_Y285] | 0.836 | 0.477 | 0.611 | 1.06 | 0.582 | 0.417 | 0.491 | 0.598 | 0.786 | 0.54 | 0.836 | 0.817 | 0.542 | 0.792 | 1.66 | 0.764
15 | AEVIWYKGDEE | 1.11 | 0.446 | 0.531 | 1.07 | 0.483 | 0.303 | 0.343 | 0.414 | 0.636 | 0.359 | 1.08 | 0.41 | 0.369 | 0.616 | 1.26 | 0.342

Reference: the supplement of paper PMC10065799, “High-throughput profiling of sequence recognition by tyrosine kinases and SH2 domains using bacterial peptide display” (eLife, 2023)
